Measurements: PMC4338625, “Comparison of MAPK specificity across the ETS transcription factor family identifies a high-affinity ERK interaction required for ERG function in prostate cells” (Cell Communication and Signaling : CCS, 2015)
Blank lines part the entries; values can stand above or below the molecule they belong to.

Experiments:
[1] = target: ERK2 (pERK2, activated by co-expression with constitutively active MEK) (UniProt P63086); assay: MST; 200 nM fluorescently labeled (RED-NHS) ERK2 incubated 30 minutes at room temperature in the dark with different concentrations of purified ETS1 or ERG; standard glass capillaries; NanoTemper Monolith NT.115, LED 80%, IR laser 80%
[2] = target: T1, ETS1, full-length human, 6x His-tagged (human, UniProt P14921 1-441); assay: as above; settings: both partners purified
T1 construct: human ETS1, full-length cDNA in pET28a
T1 sequence (looked up): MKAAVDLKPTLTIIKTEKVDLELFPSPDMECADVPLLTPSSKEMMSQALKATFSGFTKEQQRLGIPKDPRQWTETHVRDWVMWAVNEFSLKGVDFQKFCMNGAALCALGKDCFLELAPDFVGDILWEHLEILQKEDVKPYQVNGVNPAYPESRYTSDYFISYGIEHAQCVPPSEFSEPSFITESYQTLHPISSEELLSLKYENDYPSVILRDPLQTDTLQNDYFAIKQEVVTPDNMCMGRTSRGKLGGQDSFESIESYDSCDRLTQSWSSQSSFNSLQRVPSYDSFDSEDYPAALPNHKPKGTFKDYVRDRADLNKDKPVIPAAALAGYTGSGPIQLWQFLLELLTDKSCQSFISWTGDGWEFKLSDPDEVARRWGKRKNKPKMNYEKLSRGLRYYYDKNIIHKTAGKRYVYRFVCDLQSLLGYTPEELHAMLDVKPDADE

Kd [1]: 230 nM
Molecule: ERG (isoform 1), full-length human, 6x His-tagged (natural protein)

Kd [2]: 1790 nM
B1: ERK2 (pERK2, activated by co-expression with constitutively active MEK) (enzyme, UniProt P63086 1-358, looked up)
chain: MAAAAAAGPEMVRGQVFDVGPRYTNLSYIGEGAYGMVCSAYDNLNKVRVAIKKISPFEHQTYCQRTLREIKILLRFRHENIIGINDIIRAPTIEQMKDVYIVQDLMETDLYKLLKTQHLSNDHICYFLYQILRGLKYIHSANVLHRDLKPSNLLLNTTCDLKICDFGLARVADPDHDHTGFLTEYVATRWYRAPEIMLNSKGYTKSIDIWSVGCILAEMLSNRPIFPGKHYLDQLNHILGILGSPSQEDLNCIINLKARNYLLSLPHKNKVPWNRLFPNADSKALDLLDKMLTFNPHKRIEVEQALAHPYLEQYYDPSDEPIAEAPFKFDMELDDLPKEKLKELIFEETARFQPGYRS
modifications: phosphorylated by co-expressed constitutively active MEK (pERK2); fluorescently labeled with amine reactive RED-NHS dye (Monolith Protein Labeling Kit RED-NHS)
notes: also called ERK2 kinase; source: co-expressed with constitutively active MEK, purified from bacteria as described [52]
